Test results taken from the supplement of paper PMC10567573.

B1: FAM46C (parent)
chain: VRSRLEEAGIKVHDVRLNGSAAGH

Variants of: B1
Assay: protein stability index of a GFP-peptide fusion (GPS, HEK-293T) (PSI 1-6); higher = more stable
Conditions: c terminus: a fixed tail appended
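Also: lentivirally expressed fusions sorted by FACS into six bins by GFP to DsRed ratio, PSI derived from sequencing read proportions per bin multiplied by bin number.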

In order of falling protein stability index:
1. L5Q  5.12
2. V15D  5.04
3. V12E  4.73
4. R16E  4.63
5. L5T  4.59
6. I10P  4.56
7. L17G  4.55
8. I10G  4.5
9. A8E  4.46
10. L5E  4.38
11. R2S  4.37
12. L5D  4.35
13. L5S  4.34
14. L17S  4.33
15. V1T  4.25
16. V12K  4.25
17. R2D  4.25
18. I10V  4.24
19. V15H  4.22
20. V1S  4.18
21. H13G  4.18
22. V1R  4.11
23. N18S  4.1
24. K11T  4.08
25. V12P  4.06
26. H13E  4.06
27. V1H  4.02
28. L5R  4
29. L17D  4
30. V12A  3.93
31. V12S  3.93
32. G9N  3.91
33. I10S  3.9
34. G9D  3.89
35. R2P  3.89
36. G9Q  3.88
37. A8P  3.88
38. R2T  3.82
39. E7P  3.78
40. I10T  3.78
41. G19E  3.77
42. K11S  3.76
43. L17N  3.75
44. E6P  3.71
45. G9P  3.67
46. H24E  3.66
47. V15P  3.65
48. I10A  3.63
49. V1K  3.62
50. N18M  3.59
51. V15F  3.57
52. N18K  3.56
53. E6N  3.54
54. H24W  3.51
55. L5W  3.49
56. V15M  3.41
57. R2G  3.36
58. V15S  3.35
59. V12Y  3.33
60. E7R  3.32
61. V12M  3.25
62. A22V  3.25
63. A8T  3.2
64. S20N  3.2
65. A8N  3.17
66. V1A  3.16
67. L17A  3.15
68. G9M  3.15
69. K11G  3.13
70. A8H  3.12
71. A21G  3.12
72. E7G  3.06
73. L5Y  3.04
74. R2A  3.04
75. G9C  3.03
76. H13A  2.98
77. G9T  2.97
78. R2Y  2.95
79. G23F  2.94
80. G23A  2.92
81. E6H  2.9
82. K11E  2.89
83. G9V  2.88
84. A21R  2.83
85. G9W  2.81
86. D14T  2.8
87. V12W  2.77
88. G9A  2.76
89. H24P  2.76
90. G9K  2.75
91. K11Q  2.74
92. A22I  2.74
93. D14Y  2.74
94. K11W  2.69
95. R16Q  2.68
96. H24Q  2.67
97. R16Y  2.64
98. D14S  2.64
99. S20Q  2.63
100. V15Y  2.61
101. S20V  2.61
102. S20A  2.61
103. V1M  2.6
104. E6R  2.59
105. A8M  2.58
106. R2Q  2.58
107. V12L  2.56
108. R16H  2.54
109. L17I  2.53
110. E7T  2.51
111. R16K  2.49
112. E7I  2.48
113. E7K  2.45
114. S20C  2.45
115. A21I  2.44
116. D14L  2.43
117. H13Q  2.42
118. D14E  2.4
119. R2H  2.4
120. E7H  2.37
121. K11V  2.36
122. D14C  2.33
123. R2M  2.33
124. A21S  2.32
125. R2C  2.3
126. V12T  2.29
127. R2W  2.28
128. R16F  2.25
129. A22N  2.25
130. G19A  2.19
131. A8W  2.19
132. G23W  2.18
133. A22S  2.17
134. A22R  2.17
135. N18W  2.13
136. I10F  2.12
137. A22E  2.12
138. A22Q  2.1
139. V15I  2.06
140. R2F  2.04
141. N18G  2.02
142. H13K  2.02
143. K11M  2.01
144. E7W  1.99
145. K11H  1.99
146. N18Q  1.96
147. A8R  1.96
148. S20P  1.95
149. A22Y  1.94
150. N18T  1.87
151. D14M  1.79
152. H13F  1.74
153. A21Q  1.72
154. R16W  1.66
155. E6W  1.64
156. K11I  1.63
157. G23M  1.62
158. G23I  1.6
159. A21W  1.56
160. A21Y  1.56
161. K11F  1.51
162. A22F  1.25
163. G23Q  1.2
164. H13S  1.19
165. A8Y  1.13
166. H13I  1.03
167. H13D  1.02
